# How the values were obtained:
# SHP2-C SH2 = test: SH2 binding enrichment of the phosphorylated peptide, bacterial display (enrichment ratio); higher = better substrate or ligand; peptides without Tyr show the background
# c-Src SH2 = test: as above
# Grb2 SH2 = Grb2 SH2 (UniProt P62993); test: as above
# Fer (mouse) = test: phosphorylation enrichment, bacterial display (enrichment ratio); higher = better substrate or ligand; peptides without Tyr show the background
# FGFR3 = FGFR3 (UniProt P22607); test: as above
# Sequence of FGFR3 (P22607 whole entry, looked up): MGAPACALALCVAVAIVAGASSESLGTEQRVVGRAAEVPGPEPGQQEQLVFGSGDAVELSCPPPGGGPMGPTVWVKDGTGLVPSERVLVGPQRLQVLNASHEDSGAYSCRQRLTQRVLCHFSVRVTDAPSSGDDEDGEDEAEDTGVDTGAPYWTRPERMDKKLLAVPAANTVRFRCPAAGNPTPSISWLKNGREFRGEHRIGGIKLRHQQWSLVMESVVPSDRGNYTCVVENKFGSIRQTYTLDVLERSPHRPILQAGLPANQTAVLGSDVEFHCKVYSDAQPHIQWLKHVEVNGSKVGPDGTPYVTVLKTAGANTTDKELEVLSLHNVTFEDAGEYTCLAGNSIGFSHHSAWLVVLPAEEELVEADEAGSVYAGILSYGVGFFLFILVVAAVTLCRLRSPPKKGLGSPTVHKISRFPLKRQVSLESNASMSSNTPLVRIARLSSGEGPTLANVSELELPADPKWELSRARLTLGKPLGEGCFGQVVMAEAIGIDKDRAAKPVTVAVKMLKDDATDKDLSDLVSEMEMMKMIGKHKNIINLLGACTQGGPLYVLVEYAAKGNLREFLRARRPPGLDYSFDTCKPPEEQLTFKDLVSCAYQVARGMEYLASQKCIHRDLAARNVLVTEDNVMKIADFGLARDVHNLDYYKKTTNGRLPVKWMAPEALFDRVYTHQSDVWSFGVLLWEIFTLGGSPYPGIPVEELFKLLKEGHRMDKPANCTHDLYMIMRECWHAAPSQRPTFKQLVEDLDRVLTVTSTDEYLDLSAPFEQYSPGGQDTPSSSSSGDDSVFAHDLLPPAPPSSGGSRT
# c-Abl (mouse) = test: as above
# Fyn = Fyn (UniProt P06241); test: as above
# Sequence of Fyn (P06241 whole entry, looked up): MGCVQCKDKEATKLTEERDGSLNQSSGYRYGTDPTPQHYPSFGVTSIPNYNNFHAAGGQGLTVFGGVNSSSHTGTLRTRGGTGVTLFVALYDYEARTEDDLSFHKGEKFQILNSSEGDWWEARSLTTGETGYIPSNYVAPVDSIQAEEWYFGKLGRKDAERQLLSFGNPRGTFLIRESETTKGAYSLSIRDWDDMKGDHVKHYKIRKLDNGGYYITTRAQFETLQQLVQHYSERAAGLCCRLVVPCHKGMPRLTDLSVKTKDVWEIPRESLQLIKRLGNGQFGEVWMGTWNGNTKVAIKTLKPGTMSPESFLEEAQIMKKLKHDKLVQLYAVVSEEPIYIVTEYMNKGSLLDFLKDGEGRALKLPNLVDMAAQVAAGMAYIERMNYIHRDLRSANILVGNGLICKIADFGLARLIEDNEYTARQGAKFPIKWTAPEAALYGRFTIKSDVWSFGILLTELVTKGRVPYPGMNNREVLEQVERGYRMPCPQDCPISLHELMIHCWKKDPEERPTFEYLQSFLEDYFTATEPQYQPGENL
# Hck = Hck (UniProt P08631); test: as above
# Sequence of Hck (P08631 whole entry, looked up): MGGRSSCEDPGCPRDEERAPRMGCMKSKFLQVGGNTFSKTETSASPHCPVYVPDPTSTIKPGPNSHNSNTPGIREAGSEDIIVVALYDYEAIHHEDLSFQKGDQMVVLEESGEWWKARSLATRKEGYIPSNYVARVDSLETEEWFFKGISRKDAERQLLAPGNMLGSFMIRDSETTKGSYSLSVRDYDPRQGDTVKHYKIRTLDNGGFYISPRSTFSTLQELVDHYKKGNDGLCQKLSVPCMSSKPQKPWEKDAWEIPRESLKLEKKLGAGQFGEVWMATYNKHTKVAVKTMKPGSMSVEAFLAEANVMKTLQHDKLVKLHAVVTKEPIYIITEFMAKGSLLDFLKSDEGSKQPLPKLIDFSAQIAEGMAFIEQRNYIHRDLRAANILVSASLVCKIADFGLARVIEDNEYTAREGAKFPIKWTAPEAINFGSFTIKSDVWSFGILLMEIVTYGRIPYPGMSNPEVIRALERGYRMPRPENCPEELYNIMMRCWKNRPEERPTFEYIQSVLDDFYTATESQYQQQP
# c-Src = test: as above
# EPHB2 = EPHB2 (UniProt P29323); test: as above
# Sequence of EPHB2 (P29323 whole entry, looked up): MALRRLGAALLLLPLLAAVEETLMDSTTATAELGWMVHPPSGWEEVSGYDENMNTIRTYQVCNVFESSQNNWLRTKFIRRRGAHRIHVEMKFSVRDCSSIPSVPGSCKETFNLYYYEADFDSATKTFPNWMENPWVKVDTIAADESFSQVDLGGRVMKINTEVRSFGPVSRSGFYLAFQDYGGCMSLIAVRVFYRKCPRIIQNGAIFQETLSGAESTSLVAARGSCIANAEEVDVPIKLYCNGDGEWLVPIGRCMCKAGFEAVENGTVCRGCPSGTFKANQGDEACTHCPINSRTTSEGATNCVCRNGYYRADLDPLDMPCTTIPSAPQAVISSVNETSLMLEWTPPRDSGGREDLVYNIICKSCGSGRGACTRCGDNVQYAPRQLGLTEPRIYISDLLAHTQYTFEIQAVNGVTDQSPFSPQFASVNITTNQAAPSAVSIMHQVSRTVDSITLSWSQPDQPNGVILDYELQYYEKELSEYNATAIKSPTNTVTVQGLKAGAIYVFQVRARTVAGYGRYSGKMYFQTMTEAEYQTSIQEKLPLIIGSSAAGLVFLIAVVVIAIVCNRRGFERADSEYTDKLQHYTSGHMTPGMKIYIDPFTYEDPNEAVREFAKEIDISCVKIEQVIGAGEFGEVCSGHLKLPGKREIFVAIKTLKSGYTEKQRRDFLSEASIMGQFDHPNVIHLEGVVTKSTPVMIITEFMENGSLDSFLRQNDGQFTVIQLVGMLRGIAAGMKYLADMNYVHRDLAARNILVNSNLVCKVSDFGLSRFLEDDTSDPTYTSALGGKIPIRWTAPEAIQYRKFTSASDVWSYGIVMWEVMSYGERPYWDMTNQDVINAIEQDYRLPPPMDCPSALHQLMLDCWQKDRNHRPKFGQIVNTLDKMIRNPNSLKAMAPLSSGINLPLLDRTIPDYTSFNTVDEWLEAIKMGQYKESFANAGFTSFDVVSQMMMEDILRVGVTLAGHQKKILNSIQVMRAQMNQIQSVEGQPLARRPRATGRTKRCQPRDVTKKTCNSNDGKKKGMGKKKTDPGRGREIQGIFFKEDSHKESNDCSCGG
# EPHB1 = EPHB1 (UniProt P54762); test: as above
# Sequence of EPHB1 (P54762 whole entry, looked up): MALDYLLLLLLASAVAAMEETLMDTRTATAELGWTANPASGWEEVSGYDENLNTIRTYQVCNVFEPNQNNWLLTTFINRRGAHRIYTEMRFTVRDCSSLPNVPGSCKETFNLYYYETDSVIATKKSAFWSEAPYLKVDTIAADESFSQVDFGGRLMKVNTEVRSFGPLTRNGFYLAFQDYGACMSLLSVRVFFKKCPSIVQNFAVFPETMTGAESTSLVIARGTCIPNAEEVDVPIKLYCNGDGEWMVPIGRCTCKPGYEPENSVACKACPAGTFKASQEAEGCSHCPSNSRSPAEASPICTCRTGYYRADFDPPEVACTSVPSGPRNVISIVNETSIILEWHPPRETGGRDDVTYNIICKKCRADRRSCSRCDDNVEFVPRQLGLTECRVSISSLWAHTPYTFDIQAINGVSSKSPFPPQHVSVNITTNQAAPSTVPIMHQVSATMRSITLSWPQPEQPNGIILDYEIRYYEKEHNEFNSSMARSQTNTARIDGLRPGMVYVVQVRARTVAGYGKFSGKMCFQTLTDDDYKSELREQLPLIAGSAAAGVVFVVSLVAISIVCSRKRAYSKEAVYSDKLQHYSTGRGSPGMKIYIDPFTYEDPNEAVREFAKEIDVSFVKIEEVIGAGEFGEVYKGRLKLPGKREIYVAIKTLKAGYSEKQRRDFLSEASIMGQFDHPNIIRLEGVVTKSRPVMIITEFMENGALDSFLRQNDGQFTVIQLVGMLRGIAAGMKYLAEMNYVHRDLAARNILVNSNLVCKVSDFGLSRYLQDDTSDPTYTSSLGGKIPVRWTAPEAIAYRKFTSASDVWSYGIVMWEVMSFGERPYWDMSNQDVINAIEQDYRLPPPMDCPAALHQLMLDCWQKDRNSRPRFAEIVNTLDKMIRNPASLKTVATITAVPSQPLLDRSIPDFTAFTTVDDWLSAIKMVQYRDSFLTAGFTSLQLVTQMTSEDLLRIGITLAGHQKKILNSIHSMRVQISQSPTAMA
# Jak2 = Jak2 (UniProt O60674); test: as above
# FGFR1 = FGFR1 (UniProt P11362); test: as above
# MERTK = MERTK (UniProt Q12866); test: as above
# Fes = Fes (UniProt P07332); test: as above
# Sequence of Fes (P07332 whole entry, looked up): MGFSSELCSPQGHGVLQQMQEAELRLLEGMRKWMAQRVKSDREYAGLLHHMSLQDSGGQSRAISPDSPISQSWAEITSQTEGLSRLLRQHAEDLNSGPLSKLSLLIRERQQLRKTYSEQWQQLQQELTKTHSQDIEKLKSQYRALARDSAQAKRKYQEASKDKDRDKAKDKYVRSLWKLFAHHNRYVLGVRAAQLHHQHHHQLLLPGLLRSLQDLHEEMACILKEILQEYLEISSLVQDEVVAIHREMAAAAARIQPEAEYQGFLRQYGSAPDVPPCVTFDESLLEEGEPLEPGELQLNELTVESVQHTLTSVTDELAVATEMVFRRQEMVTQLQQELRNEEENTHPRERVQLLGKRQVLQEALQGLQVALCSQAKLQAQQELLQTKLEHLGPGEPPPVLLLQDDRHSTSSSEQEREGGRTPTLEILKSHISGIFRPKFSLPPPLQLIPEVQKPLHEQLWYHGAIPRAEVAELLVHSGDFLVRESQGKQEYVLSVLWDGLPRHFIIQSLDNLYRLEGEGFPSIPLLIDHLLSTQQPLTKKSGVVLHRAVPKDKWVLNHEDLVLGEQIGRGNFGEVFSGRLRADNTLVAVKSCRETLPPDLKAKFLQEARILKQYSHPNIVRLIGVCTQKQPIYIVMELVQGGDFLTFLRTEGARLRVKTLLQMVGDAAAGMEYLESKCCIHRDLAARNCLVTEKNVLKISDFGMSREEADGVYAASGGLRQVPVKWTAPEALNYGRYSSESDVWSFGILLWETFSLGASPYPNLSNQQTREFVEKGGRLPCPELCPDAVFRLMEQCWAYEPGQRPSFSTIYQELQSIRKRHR
# AncSZ = test: as above
# 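For SH2 binding enrichment of the phosphorylated peptide, bacterial display in this document: peptide library displayed on the E. coli surface as eCPX fusions, selected cells deep-sequenced, score is each peptide's frequency after selection divided by its frequency in the input.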
# 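For phosphorylation enrichment, bacterial display in this document: 11-residue human phosphosite peptides and single-mutation variants displayed on the E. coli surface, counted by deep sequencing, each peptide's frequency after selection divided by its frequency in the unselected input library; frequency after pTyr selection over input frequency; kinase dosed for 20-30% of maximal phosphorylation in three min.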
# Sequence of Grb2 SH2 (P62993 whole entry, looked up): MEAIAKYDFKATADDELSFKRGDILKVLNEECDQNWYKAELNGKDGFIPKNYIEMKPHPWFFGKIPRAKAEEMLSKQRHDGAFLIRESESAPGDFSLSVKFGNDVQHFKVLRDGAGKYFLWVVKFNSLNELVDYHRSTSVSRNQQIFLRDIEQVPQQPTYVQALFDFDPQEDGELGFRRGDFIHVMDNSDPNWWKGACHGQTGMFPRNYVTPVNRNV
Sequence,SH2 binding enrichment (SHP2-C SH2),SH2 binding enrichment (c-Src SH2),SH2 binding enrichment (Grb2 SH2),phosphorylation enrichment (Fer (mouse)),phosphorylation enrichment (FGFR3),phosphorylation enrichment (c-Abl (mouse)),phosphorylation enrichment (Fyn),phosphorylation enrichment (Hck),phosphorylation enrichment (c-Src),phosphorylation enrichment (EPHB2),phosphorylation enrichment (EPHB1),phosphorylation enrichment (Jak2),phosphorylation enrichment (FGFR1),phosphorylation enrichment (MERTK),phosphorylation enrichment (Fes),phosphorylation enrichment (AncSZ)
ERIELYELDKK [PMM2_Y145_F144L],0.635,0.487,0.803,0.506,0.673,0.641,0.586,0.574,0.615,0.589,0.664,0.887,0.481,0.568,1.1,1.18
ERNAHYRTPKI [PTK2B_Y699_R698H],0.611,0.521,0.707,0.424,0.473,0.615,0.367,0.332,0.387,0.561,0.583,0.559,0.524,0.37,0.495,0.586
ERNARYRTPKI [PTK2B_Y699],0.71,0.428,0.599,0.313,0.369,0.527,0.33,0.351,0.351,0.276,0.314,0.409,0.316,0.697,0.515,0.562
ERTIEYLEEVV [HADHA_Y239_A244V],0.594,0.451,0.836,0.523,0.712,0.739,0.466,0.498,0.487,0.615,0.559,1.07,0.55,0.386,1.17,1.18
ESFCLYPPVPQ [CYP4B1_Y377_R375C],0.842,0.56,0.895,0.582,0.647,0.739,0.459,0.484,0.477,0.595,0.805,0.906,0.539,0.447,1.12,0.874
ETAENYLGHTA [HSPA9_Y181],0.588,0.497,0.972,0.443,0.523,0.559,0.442,0.47,0.414,0.652,0.43,0.622,0.486,0.503,0.865,0.858
ETKKQYNSFTY [TMED3_Y85_D86N],0.704,1.03,1.1,0.434,0.455,0.435,0.592,0.423,0.491,0.434,0.436,0.54,0.496,0.463,0.753,0.617
ETKRPYTVILI [SBDS_Y128],0.877,1.05,0.838,1.16,0.722,0.825,0.457,0.481,0.458,0.527,0.57,1.01,0.582,0.479,1.15,1.06
ETLLYYGYRRS [POR_Y564_C566Y],1,0.474,0.756,0.766,1.18,9.52,9.27,14.6,10.7,1.06,1.21,5.24,1.3,6.93,0.806,1.21
ETPSEYLEIVR [TMEM130_Y412],0.573,0.443,0.605,0.493,0.77,0.652,0.555,0.652,0.49,0.608,0.848,1.01,0.645,0.452,1.01,1.17
ETRWKYHFEVV [GCNT3_Y267],0.678,0.437,0.712,0.57,1.04,0.979,0.439,0.563,0.364,0.706,0.701,1.35,0.505,0.418,1.52,1.42
EVVGRYSVHNA [MLH1_Y183],0.597,0.42,0.668,0.405,0.513,0.589,0.487,0.488,0.497,0.451,0.437,0.698,0.457,0.421,0.717,0.633
EWKNNCPRLRE [OPA1_Y582_Y582C],0.571,0.562,0.916,0.433,0.654,0.592,0.395,0.472,0.411,0.582,0.492,0.81,0.508,0.415,1.13,0.9
EWQQIYTFDSG [JUP_Y20_T19I_YF],0.92,0.555,1.23,4.03,5.97,1.06,11.9,7.35,9.4,0.906,1.21,1.21,7.82,9.37,1.58,1.78
EYQLPYYNTVP [BMPR1A_Y457_M460T],0.872,6.88,9.47,1.94,5.15,2.54,1.42,1.93,5.66,1.19,0.966,5.82,7.09,2.31,1.05,4.46
EYRFIYMAVQH [PTPN11_Y515_Q510E],0.765,0.556,0.831,3.17,1.71,2.02,4.15,4.57,3.46,1.02,1.96,1.26,2.02,1.29,1.34,1.39

# Reference: the supplement of paper PMC10065799, “High-throughput profiling of sequence recognition by tyrosine kinases and SH2 domains using bacterial peptide display” (eLife, 2023)
